What was measured:
Scr (Sex combs reduced) [1] = biological target: T1, Scr (Sex combs reduced) (Bombyx mori, UniProt Q9XZR4 1-356); assay: EMSA; dose-dependent; competed by unlabeled probe; EMSA: 0.1-1 ug protein, 5 uM labeled probe, 15 uL with 3 uL 5x binding buffer (Beyotime, composition not given), 25 C, 20 + 20 min; 5% PAGE in 1x TBE (45 mM Tris-borate, 1 mM EDTA, pH 8.3); conditions: protein: recombinant; tags: His-SUMO (N-terminal, pCold-SUMO); label: 5'-Cy3; blunt
Scr (Sex combs reduced) [2] = biological target: T1, Scr (Sex combs reduced); assay: competition; unlabeled mutant, 5-50x, against labeled N5; EMSA: 0.1-1 ug protein, 5 uM labeled probe, 15 uL with 3 uL 5x binding buffer (Beyotime, composition not given), 25 C, 20 + 20 min; 5% PAGE in 1x TBE (45 mM Tris-borate, 1 mM EDTA, pH 8.3); conditions: protein: recombinant; tags: His-SUMO (N-terminal, pCold-SUMO); label: none; blunt
Scr (Sex combs reduced) [3] = biological target: T1, Scr (Sex combs reduced); assay: competition; unlabeled mutant, 5-50x, against labeled N3; EMSA: 0.1-1 ug protein, 5 uM labeled probe, 15 uL with 3 uL 5x binding buffer (Beyotime, composition not given), 25 C, 20 + 20 min; 5% PAGE in 1x TBE (45 mM Tris-borate, 1 mM EDTA, pH 8.3); conditions: protein: recombinant; tags: His-SUMO (N-terminal, pCold-SUMO); label: none; blunt
Scr (Sex combs reduced) [4] = biological target: T1, Scr (Sex combs reduced); assay: competition; unlabeled mutant, 5-50x, against labeled N1; EMSA: 0.1-1 ug protein, 5 uM labeled probe, 15 uL with 3 uL 5x binding buffer (Beyotime, composition not given), 25 C, 20 + 20 min; 5% PAGE in 1x TBE (45 mM Tris-borate, 1 mM EDTA, pH 8.3); conditions: protein: recombinant; tags: His-SUMO (N-terminal, pCold-SUMO); label: none; blunt

T1 sequence (Q9XZR4 entry or part of it): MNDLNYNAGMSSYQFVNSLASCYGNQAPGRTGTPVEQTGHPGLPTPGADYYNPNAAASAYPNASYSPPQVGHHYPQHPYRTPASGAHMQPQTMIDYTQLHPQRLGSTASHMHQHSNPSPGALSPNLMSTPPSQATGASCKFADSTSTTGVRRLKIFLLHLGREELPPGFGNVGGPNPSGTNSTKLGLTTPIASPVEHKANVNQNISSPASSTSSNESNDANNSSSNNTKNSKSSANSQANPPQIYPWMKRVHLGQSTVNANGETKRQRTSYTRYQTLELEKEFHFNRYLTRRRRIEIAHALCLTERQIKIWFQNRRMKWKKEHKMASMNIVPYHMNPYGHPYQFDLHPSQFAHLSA

Binder	binding result (Scr (Sex combs reduced) [1])	further results
FPPS2 probe (dsDNA) DNA 1: TCGCAAGTGAAAACAATTAATTCGCAATCGGTTCA DNA 2: TGAACCGATTGCGAATTAATTGTTTTCACTTGCGA	binds	–
Allatotropin probe (dsDNA) DNA 1: CCATAGGTTTGTAGATAATTAGCGTAGCACGCTGTA DNA 2: TACAGCGTGCTACGCTAATTATCTACAAACCTATGG	binds	–
JHAMT probe (dsDNA) DNA 1: ATGGCTAATTTTTTTAATGAATTAAAAGAAC DNA 2: GTTCTTTTAATTCATTAAAAAAATTAGCCAT	binds	–
JHAMT mutant probe (dsDNA) DNA 1: ATGGCTAATTTTTTCCCCGAATTAAAAGAAC DNA 2: GTTCTTTTAATTCGGGGAAAAAATTAGCCAT	–	binding result (Scr (Sex combs reduced) [2]): no binding
FPPS2 mutant probe (dsDNA) DNA 1: TCGCAAGTGAAAACACCCCCTTCGCAATCGGTTCA DNA 2: TGAACCGATTGCGAAGGGGGTGTTTTCACTTGCGA	–	binding result (Scr (Sex combs reduced) [3]): no binding
Allatotropin mutant probe (dsDNA) DNA 1: CCATAGGTTTGTAGACCCCCAGCGTAGCACGCTGTA DNA 2: TACAGCGTGCTACGCTGGGGGTCTACAAACCTATGG	–	binding result (Scr (Sex combs reduced) [4]): no binding

— publication PMC4661804, “Homeodomain Protein Scr Regulates the Transcription of Genes Involved in Juvenile Hormone Biosynthesis in the Silkworm”
